# Measurements taken from patent US20260008856A1, “METHODS OF TREATING DISEASE USING ANTI-IL1RAP ANTIBODIES AND ANTIBODY DRUG CONJUGATES” (Bluefin Biomedicine, Inc., priority 2022, published 2026).
# Columns and labels:
# [1] = test system: MOLT3; assay: Flow cytometry binding to endogenous cell line MOLT3; assay type: cell-based; set-up: key: (−): No binding; (+): Weak binding; (++): Moderate binding; (+++): Strong binding; settings: primary antibody 1 ug/ml
# Protocol: (§1) Staining for flow cytometry was performed in 1× cold PBS with 0.5% BSA. Primary antibodies (1 ug/ml) were incubated with live cells on ice for 30 minutes, after a brief wash, cells were incubated with Alexa Fluro® 488-conjugated anti-human IgG secondary antibody @1:1000 (709-546-149, Jackson ImmunoResearch). Acquisition of the data was performed on a MACSQuant® Flow Cytometers (Miltenyi Biotec) and analyzed with FlowJo software.
# [2] = test system: Karpas 299; assay: Flow cytometry binding to endogenous cell line Karpas 299; assay type: cell-based, human; set-up: key to binding to Karpas 299 by flow cytometry: (−): No binding; (+): Weak binding; (++): Moderate binding; (+++): Strong binding; settings: for binding to Karpas 299 by flow cytometry: primary antibody 1 ug/ml
# Protocol: as §1
# (§2) Over 1,000 hits were identified that bind strongly to CHO-human IL1RAP, but not parental CHO cells. 68 clones were selected for molecular cloning. Based on unique CDR3 sequences from the heavy chain variable domain, 35 antibodies from 13 families were confirmed by binding in IL1RAP positive cell lines EOL1 and Karpas 299 (see Table 8) by flow cytometry (MACSQuant® www.miltenybiotec.com).
# [3] = molecular target: T1, rat IL1RAP (Rattus norvegicus, UniProt Q63621); assay: Flow cytometry binding to 293 cells expressing rat IL1RAP; assay type: cell-based; settings: 1 ug/ml
# T1 construct: Met1-Val570; host or cells: HEK-293T
# Protocol: (§3) 293T cell line was purchased from American Type Culture Collection (ATCC). 293T cells expressing human, Macaca fascicularis, rat, and mouse IL1RAP were maintained in DMEM medium (Invitrogen) with 10% fetal bovine serum (FBS) (Sigma) in the presence of 2 ug/ml puromycin (Invitrogen).
# as §1
# [4] = test system: EOL-1; assay: Flow cytometry binding to endogenous cell line EOL-1; assay type: cell-based, human; set-up: key to binding to EOL-1 by flow cytometry: (−): No binding; (+): Weak binding; (++): Moderate binding; (+++): Strong binding; settings: for binding to EOL-1 by flow cytometry: primary antibody 1 ug/ml
# Protocol: as §1, §2
# [5] = molecular target: T2, recombinant human IL1RAP (Homo sapiens, UniProt Q9NPH3); assay: Binding competition binning on Octet; settings: Protein A biosensors
# T2 construct: MBP-IL1RAP(S21-T367)-; 8xHis (C); made in house; host or cells: CHO (ExpiCHO transient expression)
# Protocol: Binding Competition binning: Binding competition among different antibodies was determined using a real-time, interferometry assay on an Octet Red™ instrument with Protein A-conjugated biosensors. To assess whether two antibodies competed for binding to a recombinant IL1RAP protein, the assay was performed as follows. Protein A biosensors were first submerged into wells containing 10 ug/mL of individual monoclonal antibodies for 5 minutes. Following the capture step, the biosensors were dipped briefly (15 seconds) into buffer and then any unoccupied sites on the biosensor were saturated by submerging them for 5 minutes into wells containing 100 ug/mL of an irrelevant monoclonal antibody. The Octet™ biosensors were then dipped briefly (15 seconds) in buffer before immersion for 1 minute into wells containing recombinant IL1RAP. The biosensors were dipped briefly (15 seconds) in buffer before immersion for 1 minute into wells containing a second recombinant antibody.
# For the control case where the second antibody was the same as the first, there was no increase in signal, because there was no additional binding to the recombinant target.
# For the control case where buffer was used instead of the first antibody, no recombinant target bound the non-quenching antibody on the biosensor and no second antibody bound the biosensor.
# Selected antibodies were evaluated in pairs for their ability to simultaneously bind recombinant human IL1RAP. The analysis was performed by Octet™ loaded with Protein A Biosensors. A total of five different bins were determined as follows.
# [6] = molecular target: T3, mouse IL1RAP (Mus musculus, UniProt Q61730); assay: Flow cytometry binding to 293 cells expressing mouse IL1RAP; assay type: cell-based; settings: 1 ug/ml
# T3 construct: Met1-Val570; host or cells: HEK-293T
# Protocol: as §3, §1
# [7] = test system: IL-1β signaling; assay: IL-1 signaling reporter cell assay (HEK-Blue IL-1β cells), IL-1β; assay type: cell-based; settings: for inhibition of IL1R1 / IL-1 signaling: HEK-Blue IL-1β cells, antibody 1-10 pg/ml, IL-1β 0.5 ng/ml
# Protocol: (§4) HEK-Blue IL-1β cells (Invivogen, CA) were harvested and plated in technical duplicates at a density of 50,000 cells per well in a 96-well plate. IL1RAP antibodies, or a corresponding human IgG1 control antibody was added to the wells in a concentration range of […]. After incubating cells with antibodies for 30 minutes, IL-1β was added to a final concentration of 0.5 ng/ml, and the plate was incubated overnight. To examine whether any of the antibodies were able to induce IL-1R activation in the absence of IL-1β, samples were incubated with 10 μg/mL antibody without addition of the ligand. The following day, substrate was added to the supernatants, and samples were analyzed for absorbance at 620 nm.
# [8] = test system: H69; assay: Flow cytometry binding to endogenous cell line H69; assay type: cell-based; set-up: key: (−): No binding; (+): Weak binding; (++): Moderate binding; (+++): Strong binding; settings: primary antibody 1 ug/ml
# Protocol: as §1
# [9] = test system: IL-33 signaling; assay: IL-33 signaling reporter cell assay (HEK-Blue IL-33 cells); assay type: cell-based; settings: antibody 1-10 μg/ml, IL-33 0.5 ng/ml
# Protocol: FIGS. 7A and 7B show blockage of IL-33 signaling by anti-IL1RAP antibodies. HEK-Blue IL-33 cells (Invivogen, CA) were harvested and plated in technical duplicates at a density of 50,000 cells per well in a 96-well plate. Antibodies, or a corresponding human IgG1 control antibody, was added to the wells in a serial dilution starting at 10 μg/ml (FIG. 7A), or a concentration of 1 and 10 μg/ml (FIG. 7B). After incubating cells with antibodies for 30 minutes, IL-33 was added to a final concentration of 0.5 ng/ml, and the plate was incubated overnight. 24 hours later, substrate was added to the supernatants, and samples were analyzed for absorbance at 620 nm. CBIgG1 (anti-hen egg lysozyme antibody, CrownBio™) was included as a negative control.
# as §4, with “IL-33” for “IL-1β”, “plate.” for “plate. IL1RAP”, “ST2” for “IL-1R”, “IL-33,” for “IL-1β,”
# [10] = test system: DMS79; assay: Flow cytometry binding to endogenous cell line DMS79; assay type: cell-based; set-up: key to binding to DMS79 by flow cytometry: (−): No binding; (+): Weak binding; (++): Moderate binding; (+++): Strong binding
# Protocol: as §1
# [11] = test system: IL-1α signaling; assay: IL-1 signaling reporter cell assay, IL-1α; assay type: cell-based; settings: serial dilution of antibody
# Protocol: as §4
# In addition, serial dilution of IL1RAP antibodies was performed to determine EC50 against IL-1β and IL-1α (FIGS. 6B and 6C). Many of these antibodies, including 37E10_15B5 and 44E5_15C5 can block IL-1β and IL-1α signaling with subnanomolar EC50.
# T3 sequence (Q61730 21-570): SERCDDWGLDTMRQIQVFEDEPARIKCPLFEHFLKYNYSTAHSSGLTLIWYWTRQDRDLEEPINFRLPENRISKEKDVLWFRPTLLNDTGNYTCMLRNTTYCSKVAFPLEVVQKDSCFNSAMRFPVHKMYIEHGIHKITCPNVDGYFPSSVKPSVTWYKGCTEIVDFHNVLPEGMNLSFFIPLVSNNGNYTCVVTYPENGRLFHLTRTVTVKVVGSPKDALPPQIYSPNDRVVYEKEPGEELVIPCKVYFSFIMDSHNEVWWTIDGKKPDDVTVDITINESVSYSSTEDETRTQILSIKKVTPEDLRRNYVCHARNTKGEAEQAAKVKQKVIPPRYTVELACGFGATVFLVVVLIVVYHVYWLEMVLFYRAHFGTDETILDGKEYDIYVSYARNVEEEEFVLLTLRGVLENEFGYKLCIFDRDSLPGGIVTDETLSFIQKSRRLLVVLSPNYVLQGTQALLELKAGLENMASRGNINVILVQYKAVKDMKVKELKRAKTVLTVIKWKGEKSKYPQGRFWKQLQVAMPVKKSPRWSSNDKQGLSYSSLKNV
# T1 sequence (Q63621 21-570): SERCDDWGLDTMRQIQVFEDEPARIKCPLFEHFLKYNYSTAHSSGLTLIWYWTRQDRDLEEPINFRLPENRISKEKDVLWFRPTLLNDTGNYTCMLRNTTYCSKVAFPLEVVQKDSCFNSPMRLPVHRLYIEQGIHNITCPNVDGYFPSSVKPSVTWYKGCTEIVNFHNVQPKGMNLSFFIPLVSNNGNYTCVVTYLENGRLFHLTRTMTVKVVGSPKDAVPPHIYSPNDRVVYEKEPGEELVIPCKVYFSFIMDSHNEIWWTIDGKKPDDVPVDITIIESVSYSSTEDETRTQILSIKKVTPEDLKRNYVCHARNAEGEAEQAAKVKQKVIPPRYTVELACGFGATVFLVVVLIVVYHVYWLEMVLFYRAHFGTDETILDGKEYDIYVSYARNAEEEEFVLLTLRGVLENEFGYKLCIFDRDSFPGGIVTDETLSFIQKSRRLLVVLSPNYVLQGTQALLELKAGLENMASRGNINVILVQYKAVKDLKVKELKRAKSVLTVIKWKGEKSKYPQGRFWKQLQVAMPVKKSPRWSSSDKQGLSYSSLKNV
binding to 293 cells expressing rat IL1RAP [3],"competition for binding, bin (1) [5]",binding to 293 cells expressing mouse IL1RAP [6],Molecule,binding to MOLT3 by flow cytometry [1],binding to Karpas 299 by flow cytometry [2],binding to EOL-1 by flow cytometry [4],inhibition of IL1R1 / IL-1 signaling [7],inhibition of IL-33 signaling [9],other results
bind,competed with each other,–,"34C11_21B2: human anti-IL1RAP antibody, VH SEQ ID NO: 40, VL SEQ ID NO: 44 (antibody, V domains shown) VH: EVQVVESGGGLVQPGGSLRLSCAASGFTFRSYWMSWVRQAPGKGLEWVANIKQDGSERHYVDSVKGRFTISRDNAKTSLYLQMSSLRAEDTAVYYCAREGYFGSGYFDYWGQGTLVTVSS VL: DIQMTQSPSTLSASVGDRVIITCRASQSISRGLAWYQQKPGKAPKLLIYKASNLESGVPSRFSGSGSGTEFTLTISSLQPDDFAAYYCQQYSYYSHTFGQGTKLEIK",(+),(+++),(+++),–,–,–
–,competed with each other,bind weakly,"39G1_21C4: human anti-IL1RAP antibody, VH SEQ ID NO: 56, VL SEQ ID NO: 60 (antibody, V domains shown) VH: QVQLQESGPGLVKPSETLSLTCAVSGYSASGVYYWGWIRQPPGKGLEWIGNIYHSGSTYYNPSLERRVSISLDTSKNHFSLRLNFVTAADTAVYYCARDRFDAFDIWGQGTMVTVSS VL: EIVMTQSPATLSVSPGERATLSCRASQSINNILAWYQQKPGQAPRLLIYGASTRATGIPARFSGSGSGTEFTLTISSLQSEDFAVYYCQQYNNWPLTFGGGTKVEIK",(+),–,(+++),do not inhibit,do not inhibit,–

# Continued, molecule first:
Molecule,binding to 293 cells expressing rat IL1RAP [3],"competition for binding, bin (1) [5]",binding to 293 cells expressing mouse IL1RAP [6],binding to MOLT3 by flow cytometry [1],binding to Karpas 299 by flow cytometry [2],binding to EOL-1 by flow cytometry [4],inhibition of IL1R1 / IL-1 signaling [7],inhibition of IL-33 signaling [9],other results
"24G3_17C5: human anti-IL1RAP antibody, VH SEQ ID NO: 90, VL SEQ ID NO: 93 (antibody, V domains shown) VH: EVQLLESGGGLVQRGGSLRLSCAASGFTFSSYAMSWVRQAPGKGLEWVSSISGSGDSTNYADSVKGRFTISRDNSKNTLHLQMNSLRAEDTAVYYCVRDYYYGMDVWGHGTTVTVSS VL: EIVLTQSPATLSLSPGERATLSCRASQSVNSYLAWYQQKPGQAPRLLIYDASNRATGIPARFSGSGSGTDFTLTISSLEPEDFAVYYCQQRSYWPITFGQGTRLEIK",bind,competed with each other,bind weakly,–,(++),(++),–,–,–
"44E5_15C5: human anti-IL1RAP antibody, VH SEQ ID NO: 71, VL SEQ ID NO: 73 (antibody, V domains shown) VH: QVQLVESGGGVVQPGRSLRLSCAASGFTFRSHGMHWVRQAPGKGLEWVAVIWYDGSSDYYADSVKGRFTISRDNSKNTLFLQMNSLSAEDTAVYYCARENVYGSGWFFDYWGQGTLVTVSS VL: EIVMTQSPATLSVSPGERASLSCRASQSVGSNLAWYQQKPGQAPRLLIFGASTRATGIPARFSGSRSGTEFTLTISSLQSEDFALYYCQQYNNWPPWTFGQGTKLEIK",–,–,–,–,–,(+++),potent inhibition,partially inhibit,"binding to IL1RAP positive cell line Karpas 299 ([2]; flow cytometry, FIG. 2): specific binding; EC50 against IL-1β ([7]; serial dilution of antibody, reporter assay): subnanomolar; binding to H69 by flow cytometry [8]: (−); binding to IL1RAP positive cell line EOL1 ([4]; flow cytometry, FIG. 2): specific binding; binding to IL1RAP negative cell line DMS79 ([10]; flow cytometry, FIG. 2): lack of binding; EC50 against IL-1α [11]: subnanomolar; competition for binding, bin (2) [5]: competed with each other"
"5D12_18A4: human anti-IL1RAP antibody, VH SEQ ID NO: 163, VL SEQ ID NO: 167 (antibody, V domains shown) VH: QVQLQESGPGLVKPLGTLSLTCAVSGGSISNSNWWSWVRQPPGKGLEWIGEIYHSGSTNYNPSLKSRVTIALDWSKNQFSLQLRSVTAADTAVYYCARYGSGPFGGDCWGQGTLVTVSS VL: DIQLTQSPSFLSASVGDRVTISCRASQGISSYLAWYQQKPGKAPKLLIYAASTLQGGVPSRFSGSGSGTTFTLTISSLQPEDFATYYCQQLNTYPFTFGPGTKLEIK",–,competed with each other,bind weakly,–,(++),(+++),–,–,–
"38G11_28A2: human anti-IL1RAP antibody, VH SEQ ID NO: 151, VL SEQ ID NO: 154 (antibody, V domains shown) VH: EVQLVESGGGLVQPGGSLRLSCAASGFTFSSYWMSWVRQAPGKGLEWVANIKQDGSEKHYVDSVKGRFTISRDNAKNSLYLQMNSLRAEDTAVYYCAREGYFGSGYFDYWGQGTLVTVSS VL: DIQLTQSPSFLSASVGDRVTITCRASQGISSYLAWYQQKPGKAPKLLIYAASTLQSGVPSRFSGSGSGTEFTLTISSLQPEDFATYYCQQYSFYSHTFGQGTKLEIK",–,–,–,–,(++),(++),–,–,binding to DMS79 by flow cytometry ([10]; primary antibody 1 ug/ml): (−)
